The results in this text go back to publication PMC12421817, “c-di-GMP regulates bacterial NAD biosynthesis via targeting the transcriptional repressor NadR” (mBio, 2025).

Residue numbers refer to the chain shown, from its start.

Data set [1] concerns the target T1, NadR R212A R212A (Salmonella enterica serovar Typhimurium) (UniProt P24518).
T1 sequence: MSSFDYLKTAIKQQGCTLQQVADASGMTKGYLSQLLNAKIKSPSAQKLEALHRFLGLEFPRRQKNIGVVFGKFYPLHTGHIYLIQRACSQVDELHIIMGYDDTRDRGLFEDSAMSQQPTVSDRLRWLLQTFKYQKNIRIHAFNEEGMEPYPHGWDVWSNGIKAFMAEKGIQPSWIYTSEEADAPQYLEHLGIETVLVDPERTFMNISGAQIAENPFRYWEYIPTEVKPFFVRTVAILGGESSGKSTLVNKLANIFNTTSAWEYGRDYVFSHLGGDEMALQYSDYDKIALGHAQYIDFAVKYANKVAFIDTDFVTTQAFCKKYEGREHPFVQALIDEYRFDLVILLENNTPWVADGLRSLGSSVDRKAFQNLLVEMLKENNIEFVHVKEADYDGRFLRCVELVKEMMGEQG
The data set can be described thus: EMSA. As to conditions: EMSA: 50 ng DNA, 20 mM Tris pH 7.5, 100 mM NaCl, 10% glycerol, 4 mM MgCl2, 1% NP-40, 1 mM DTT, 25 uL, 20 min room temperature; 6% native PAGE, 0.5x TBE, SYBR …. (In general: Mobility shift assays separate free from complexed probe on a gel.)

Data set [2] concerns the target T2, NadR H80A H80A (Salmonella enterica serovar Typhimurium) (UniProt P24518).
T2 sequence: T1 sequence with H80A, A212R
In words: EMSA. As to conditions: EMSA: 50 ng DNA, 20 mM Tris pH 7.5, 100 mM NaCl, 10% glycerol, 4 mM MgCl2, 1% NP-40, 1 mM DTT, 25 uL, 20 min room temperature; 6% native PAGE, 0.5x TBE, SYBR ….

In the case of “GCTCATCGTGGCTTCTCGTTTTACTGACTTAACGAAACAACCGAATGAAAGCGTAATAAACGCCACAATCGGTTAATTTGTTTTATATGCTAAACAAGATAGCTGATTCAATAAGGAAAGTCACAATAATTACGTAGCCCCGTATCTGATGGCGGCGTAACGTCTTATCTGGCCTACGTGAGCGGTGCCGTCTGTAGGCCTGAT (double strand) [nadA-pnuC promoter]”, the binding result in data set [1] and in data set [2] was “binds” in each case.
With “GGTTCTTGTTTAATTTACTAAACATGGTTGCGGCAGATTAGCACTATATGGCGCTAAAAAGCACGTTATGATTTCGCTGGTGTTGTGCTTATTAAACATAAAATAAAAATACGGCGAGAGATAAACGGCAAAAAATATTTTATAGGGCAGGGTGTTAGCGTCGGATTTTGTAGTGAAATAAAGATGCTGTTAGGTTACTC (double strand) [nadB promoter]”, the binding result in data set [1] and in data set [2] was “binds” in each case.
